What was measured:
[1] = system: CNA; assay: Yeast two-hybrid assay; assay type: binding, human; settings: point mutant
Description: (A) Yeast two-hybrid mating assay. TB50α yeast were co-transformed with pSH18-34T (bearing a lacZ reporter gene) and plasmids directing the expression of LexA alone or in fusion with peptide aptamers R5G42, R7G44 or R5G52. MB210a yeast were transformed with the selected cDNA library plasmids directing the expression of CNAβ, CNAγ, and NS5ATP2 truncated proteins. To obtain negative controls, MB210a yeast were also transformed with the empty prey plasmid (pJG4-5) and with pJG4-5 directing the expression of Ras and FKBP12 prey proteins. To obtain a positive control, MB210a yeast were transformed with pJG4-5 directing the expression of RG22 peptide aptamer prey fusion protein that interacts with LexA in the context of most LexA fusion proteins.
The inventors set out to map the R5G42 binding site on CNA. The CNA interacting clones selected in the yeast two-hybrid experiments corresponded to the carboxy-terminal regions of the beta and gamma isoforms, encompassing the calmodulin-binding domain and the auto-inhibitory domain (see FIG. 3B). […] The LexA-R5G52 bait protein may thus not be properly expressed and/or folded in this yeast two-hybrid setting.
(§1) The inventors explored the ability of R5G42 mutants having a one amino acid change as compared to R5G42, to bind to CNA beta and gamma C-Terminal fragments (FIG. 3b) and to NS5A-TP2. To this end, they proceeded to yeast-two hybrid assays as in example 3. CNA beta and gamma C-Terminal fragments (FIG. 3b) and NS5A-TP2 were cloned in three different plasmids (pSH18-34, pJK103 and pRB18-40), which differed from each other in the level of sensitivity of their promoter to the bait/prey complex formation, pSH18-34 having the highest sensitivity and pRB18-40 having the lowest.
The 5′ end of RH6 (upper case) matches part of the HA epitope tag and the 5′ ends of RH4, RH3 and RH7 (upper case) match the 5′ extremity of the ADH terminator. The PCR reactions was performed using pCMV-SPORT6-CnAβ as a template. CnAβCter Δ1, Δ2, CaM were constructed by combining oligonucleotides RH6/RH4, RH6/RH3, RH6/RH7, respectively. […]

[2] = molecular target: T1, CNA beta C-terminal fragment (Homo sapiens, UniProt P16298); assay: Yeast two-hybrid assays of R5G42 mutants; assay type: binding; settings: plasmids pSH18-34, pJK103, pRB18-40
T1 construct: expressed in transfected cells; host or cells: yeast (MB210a transformed with library plasmid, mated with bait strain)
Description: (§2) The capacity of R5G42 mutants having a one amino acid change as compared to R5G42 to bind CNA beta and gamma C-Terminal fragments (FIG. 3b) and NS5A-TP2 was tested in yeast two-hybrid assays. CNA beta and gamma C-Terminal fragments and NS5A-TP2 were cloned in three different vectors (pSH18-34, pJK103 and pRB18-40). These three plasmids differ from each other in the level of sensitivity of their promoter, pSH18-34 having the highest sensitivity and pRB18-40 having the lowest.
as §1

[3] = molecular target: T2, NS5A-TP2 (Homo sapiens, UniProt Q7Z4H3); assay: Yeast two-hybrid assays of R5G42 mutants; assay type: binding; settings: plasmids pSH18-34, pJK103, pRB18-40
T2 construct: expressed in transfected cells; host or cells: yeast
T2 sequence (Q7Z4H3 1-204): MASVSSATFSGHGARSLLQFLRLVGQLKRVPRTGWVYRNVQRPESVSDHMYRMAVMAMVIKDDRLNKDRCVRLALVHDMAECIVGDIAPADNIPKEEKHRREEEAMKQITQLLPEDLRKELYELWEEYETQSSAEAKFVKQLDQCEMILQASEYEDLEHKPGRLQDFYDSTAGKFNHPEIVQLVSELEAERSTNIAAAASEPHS
Description: as §2, §1

[4] = system: CNA gamma C-terminal fragment; assay: Yeast two-hybrid assays of R5G42 mutants; assay type: binding, human; settings: plasmids pSH18-34, pJK103, pRB18-40
Description: as §2, §1

[5] = molecular target: T2, NS5A-TP2; assay: Further yeast two-hybrid binding assays (higher sensitivity)
Description: FIG. 14. Specificity of aptamers according to the invention for CNA and NS5A-TP2 Interaction matrix between peptide aptamers R5G42, C2, C7, C8, N9, R5G44 and R5G52 with CNA constructs CNA1-CNA8 (A) CNA9-11 (B) and NS5A-TP2 (C). An interaction phenotype between CNA3/CNA 11, which both contain the Calmodulin binding domain (CaM) and the auto-inhibitory domain (Al) but not the CNB binding domain (CNB) and the aptamers R5G42, C2, C7, C8 and N9 is observed in a two-hybrid assay. R5G44 and R5G52 aptamers recognize neither the CNA fragments, nor NS5A-TP2. Only aptamers R5G42 and N9 recognize NS5A-TP2.
The inventors proceeded to further yeast two-hybrid binding assays between peptide aptamers R5G42 (SEQ ID 22), C2 (SEQ ID 23), C7 (SEQ ID 27), C8 (SEQ ID 28), N9 (SEQ ID 33), R5G44 and R5G52 with CNA constructs CNA1-CNA8 (FIG. 14A), CNA9-CNA11 (FIG. 14B) and NS5A-TP2 (SEQ ID 15) (FIG. 14C). The sensitivity of this yeast two-hybrid assay was higher than in the experiment reported above.

Chain of CNA gamma C-terminal fragment (P48454 386-512 limits assumed): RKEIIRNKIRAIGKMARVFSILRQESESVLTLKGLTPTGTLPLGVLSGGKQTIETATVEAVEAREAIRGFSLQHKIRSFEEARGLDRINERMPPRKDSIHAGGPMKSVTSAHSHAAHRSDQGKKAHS

B1: N9: R5G42 mutant having a one amino acid change (SEQ ID 33) (protein)
chain: MVKQIESKTAFQEALDAAGDKLVVVDFSAAWCGPSAVTFAVCALGPCKMIKPFFHSLSEKYSNVIFLEVDVDDCQDVASECEVKCMPTFQFFKKGQKVGEFSGANKEKLEATINELV
modifications: Aptamer R5G42 mutant N9
two hybrid interaction phenotype against CNA compared to R5G42 [1]: dramatic reduction | yeast two-hybrid interaction [2]: not with the CNA beta and gamma C-terminal fragments | yeast two-hybrid interaction [3]: shown to interact with NS5A-TP2 | yeast two-hybrid interaction [4]: not with the CNA beta and gamma C-terminal fragments | recognition of NS5A-TP2 [5]: recognized NS5A-TP2

Source: US8440804B2, “Polypeptides having modulatory effects on cells” (Ecole Normale Superieure de Lyon, priority 2006, dated 2013)
